Data on 1 molecule can be found in PMC3046773 (Life sciences, 2010).

For the experiment, the target named is T1, PGIS–CFP (human, UniProt Q16647 1-500).
T1 sequence (looked up): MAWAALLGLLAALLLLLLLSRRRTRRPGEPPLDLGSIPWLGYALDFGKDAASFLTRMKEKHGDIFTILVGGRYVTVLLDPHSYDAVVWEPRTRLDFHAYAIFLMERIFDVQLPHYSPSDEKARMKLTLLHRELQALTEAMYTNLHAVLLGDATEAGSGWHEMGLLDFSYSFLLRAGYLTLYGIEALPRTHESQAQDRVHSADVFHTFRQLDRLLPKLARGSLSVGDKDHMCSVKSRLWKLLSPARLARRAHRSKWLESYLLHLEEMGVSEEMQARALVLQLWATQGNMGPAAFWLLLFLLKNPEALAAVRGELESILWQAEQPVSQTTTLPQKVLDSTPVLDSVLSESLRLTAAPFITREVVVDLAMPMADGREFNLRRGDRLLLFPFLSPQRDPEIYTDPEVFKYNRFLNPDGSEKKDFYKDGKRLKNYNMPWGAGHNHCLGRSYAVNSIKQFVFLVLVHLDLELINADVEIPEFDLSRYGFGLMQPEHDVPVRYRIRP
The experiment is described as follows: FRET or BRET. On the technique in general: Bioluminescence resonance energy transfer reports proximity on the nanometre scale.

B1: COX-2-RFP (enzyme, human, UniProt P35354 18-604, looked up)
chain: ANPCCSHPCQNRGVCMSVGFDQYKCDCTRTGFYGENCSTPEFLTRIKLFLKPTPNTVHYILTHFKGFWNVVNNIPFLRNAIMSYVLTSRSHLIDSPPTYNADYGYKSWEAFSNLSYYTRALPPVPDDCPTPLGVKGKKQLPDSNEIVEKLLLRRKFIPDPQGSNMMFAFFAQHFTHQFFKTDHKRGPAFTNGLGHGVDLNHIYGETLARQRKLRLFKDGKMKYQIIDGEMYPPTVKDTQAEMIYPPQVPEHLRFAVGQEVFGLVPGLMMYATIWLREHNRVCDVLKQEHPEWGDEQLFQTSRLILIGETIKIVIEDYVQHLSGYHFKLKFDPELLFNKQFQYQNRIAAEFNTLYHWHPLLPDTFQIHDQKYNYQQFIYNNSILLEHGITQFVESFTRQIAGRVAGGRNVPPAVQKVSQASIDQSRQMKYQSFNEYRKRFMLKPYESFEELTGEKEMSAELEALYGDIDAVELYPALLVEKPRPDAIFGETMVEVGAPFSLKGLMGNVICSPAYWKPSTFGGEVGFQIINTASIQSLICNNVKGCPFTSFSVPDPELIKTVTINASSSRSGLDDINPTVLLKERSTEL
With B1, the “FRET intensity relative to COX-1-RFP with PGIS–CFP” value stood at 2 fold.
